The test system of one test is L363 cells. As to the kind of experiment: In vivo mouse multiple myeloma xenograft model, L363 tumors. The following applies: L363 tumor-bearing mice, HuLuc63 10 mg/kg twice weekly for three weeks. The procedure:
(§1) Six- to eight-week old female IcrTac:ICR-Prkdcscid mice obtained from Taconic Farms (Germantown, N.Y.) were inoculated with 1×10^7 OPM2 or L363 cells (German Collection of Microorganisms and Cell Cultures, Braunschweig, Germany) into the lower right flank. Caliper measurements were performed twice weekly to calculate tumor volume using the following formula: L×W×H/2, where L (length) is the longest side of the tumor in the plane of the animal's back, W (width) is the longest measurement perpendicular to the length and in the same plane and H (height) is taken at the highest point perpendicular to the back of the animal. When tumors reached an average size of about 100 mm^3, animals were randomized into 3 groups of 8-10 mice each and were treated with 1 or 10 mg/kg of HuLuc63 or isotype control antibody administered intraperitoneally twice a week for a maximum of 6 doses.
(§2) Tumor growth was monitored for a period of 1-2 months. Animal work was carried out under NIH guidelines (“Guide for the Care and Use of Laboratory Animals”) using protocols approved by IACUC at PDL BioPharma.
(§3) CS1 protein expression was examined on the L363 multiple myeloma cell line. […] The combination of HuLuc63 with Thal was tested for anti-myeloma activity in vivo. L363 tumor-bearing mice were treated with HuLuc63, or isotype control antibody twice weekly for three weeks at 10 mg/kg. Thal was given 5 days a week at 50 mg/kg for a maximum of 15 doses to mice receiving either isotype control antibody or HuLuc63.
L363 tumor-bearing mice were treated with HuLuc63, or isotype control antibody twice weekly for three weeks at 10 mg/kg. Thal was given 5 days a week at 50 mg/kg for a maximum of 15 doses and Dex was given twice a week at 10 mg/kg for a maximum of 6 doses to mice receiving either isotype control antibody or HuLuc63.
To determine if an anti-angiogenic drug can enhance the antitumor effects of HuLuc63, a combination of HuLuc63 with Bevacizumab was tested for anti-myeloma activity in vivo, as described above. L363 tumor-bearing mice were treated with HuLuc63, or isotype control antibody twice weekly for three weeks at 10 mg/kg. Bevacizumab was given twice a week at 0.5 mg/kg for a maximum of 6 doses to mice receiving either isotype control antibody or HuLuc63.

The subject of test [1] is CS1. As to the kind of experiment: CS1 protein expression on L363 multiple myeloma cell line (flow cytometry). In kind it is cell-based. As to the method: The effect of HuLuc63 and Thal treatment on the expression of CS1 in MM cell lines and mouse xenograft tumors was examined by flow cytometry and immunohistochemistry respectively, as described above.
as §3

A further test concerns myeloma tumor. To be noted: myeloma mouse tumor model; from U.S. Patent Publication No. 2005/0025763; cited from earlier work.
The subject of test [2] is CS1. As to the kind of experiment: CS1 protein expression on OPM2 multiple myeloma cell line (flow cytometry). The format is cell-based. As to the method:
The effect of HuLuc63 and Dex treatment on the expression of CS1 in MM cell lines and mouse xenograft tumors was examined by flow cytometry and immunohistochemistry respectively.
CS1 protein expression was examined on the OPM2 multiple myeloma cell line. […] The combination of HuLuc63 with Dex was tested for anti-myeloma activity in vivo. OPM2 tumor-bearing mice were treated with sub-optimal doses of HuLuc63 (1 mg/kg), or isotype control antibody twice weekly for three weeks. Dex was given twice a week at 10 mg/kg to mice receiving either isotype control antibody or HuLuc63.
On the technique in general: Flow cytometry measures light scatter and fluorescence of single cells or particles in a stream.

The subject of the next test is OPM2 cells. Put plainly: In vivo mouse multiple myeloma xenograft model, OPM2 tumors. To be noted: OPM2 tumor-bearing mice; HuLuc63 1 mg/kg (sub-optimal) twice weekly for three weeks; Dex 10 mg/kg twice a week; i.p.; FIG. 1. The procedure: as §1
Dex was administered intraperitoneally at a dose of 10 mg/kg twice a week for a maximum of 6 doses.
as §2
CS1 protein expression was examined on the OPM2 multiple myeloma cell line. […] The combination of HuLuc63 with Dex was tested for anti-myeloma activity in vivo. […]

The subject of a further test is myeloma cells. The following applies: from U.S. Patent Publication No. 2005/0025763; cited from earlier work.
Setting [3] is: Thal 50 mg/kg 5 days a week, max 15 doses, FIG. 2.
The mark [4] stands for this setting: Bevacizumab 0.5 mg/kg twice a week, max 6 doses, FIG. 4.

For the molecule `O=C1CCC(N2C(=O)c3ccccc3C2=O)C(=O)N1` (centres unmarked) [Thal, Thalidomide, reference compound], the anti-tumor activity result in the test on L363 cells (setting [3]) is on record as “Significant anti-tumor activity”. For the same molecule, in the test with CS1 [1], the “change in CS1 expression pre- or post-treatment” value is recorded as “No significant change in CS1 expression”.
As to “Bevacizumab: monoclonal antibody that targets the endothelial growth factor VEGF [reference compound]”, the anti-tumor activity result in the test with L363 cells (setting [4]) is listed as “did not exhibit significant anti-tumor activity”.

B1: HuLuc63: humanized recombinant monoclonal IgG1 antibody directed to human CS1; heavy chain variable region SEQ ID NO: 5, light chain variable region SEQ ID NO: 6 (antibody, listed as Homo sapiens, V domains shown)
VH: EVQLVESGGGLVQPGGSLRLSCAASGFDFSRYWMSWVRQAPGKGLEWIGEINPDSSTINYAPSLKDKFIISRDNAKNSLYLQMNSLRAEDTAVYYCARPDGNYWYFDVWGQGTLVTVSS
VL: DIQMTQSPSSLSASVGDRVTITCKASQDVGIAVAWYQQKPGKVPKLLIYWASTRHTGVPDRFSGSGSGTDFTLTISSLQPEDVATYYCQQYSSYPYTFGQGTKVEIK
Turning to B1, the “reduction of tumor mass” value in the test on myeloma tumor was “more than 50%”. In addition, the anti-tumor activity result in the test with L363 cells (setting [4]) is “Significant anti-tumor activity”; in the test with L363 cells (setting [3]), “Significant anti-tumor activity”; in the test on L363 cells (Thal 50 mg/kg 5 days a week, Dex 10 mg/kg twice a week, FIG. 3) it was “significant anti-tumor activity”; in the test with OPM2 cells, “significant anti-tumor activity”. The “change in CS1 expression pre- or post-treatment” value in the test on CS1 [1] and with CS1 [2] was “No significant change in CS1 expression” in each case. In addition, in the test with myeloma cells, the “lysis of myeloma cells via ADCC” value is on record as “effectively mediates lysis of myeloma cells”.
